Data: patent US20230374114A1 (Dana-Farber, published 2023)

B1: S1-R3-T1-H7 (Ab12) (scFv, V domains shown)
VH: EVQLVESGPGVVSPSATLFLTCSVSGGSIRTHSWNWIRQPPGKPLEWIGFIHHSGATNKNPSLKSRVTISSDTSKNEFSLTLTSVTAADTAVYYCARGPGILSYWSRGTLVTVSS
VL: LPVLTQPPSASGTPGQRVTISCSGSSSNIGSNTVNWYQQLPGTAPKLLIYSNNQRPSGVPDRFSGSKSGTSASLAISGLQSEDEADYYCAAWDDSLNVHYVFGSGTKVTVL
B2: RBD-R3-E1-G7 (Ab2-10) (scFv, V domains shown)
VH: EVQLVESGPGLVKPSETLSLTCTVSGGSISSYYWSWIRQPAGKGLEWIGRIYTSGSTNYNPSLKSRVTMSVDTSKNQFSLKLSSVTAADTAVYYCARDVGFGWFDRWGQGTLVTVSS
VL: NFMLTQPHSVSESPGKTVTISCTRSSGSIASNYVQWYQQRPGSSPTTVIYEDNQRPSGVPDRFSGSIDSSSNSASLTISGLTTEDEADYYCQSFDSASLWVFGGGTKLTVL
B3: S1-RBD-R3-T1-F9 Ab (Ab_39) (scFv, V domains shown)
VH: QVTLKESGPTLVKPTQTLTLTCTLSGVSLDTIGMRVSWIRQPPGKALEWLARIDWDDDKFYSTALKTRLTISKDTSKNQVVFTMTSMDPVDTATYYCARSGLLYDLDVWGRGTLVTVSS
VL: QSVVTQPPSVSGAPGQRVTISCTGSDSDIGANFVQWYQQLPGTAPKLLIWRNTNRPSGVPDRFSASKSGTSASLAITGLQAEDEADYFCQSYDSSLSAYVFGGGTKVTVL
B4: RBD-R3-E1-F5 Ab (Ab_36) (scFv, V domains shown)
VH: QVQLQQSGPGLVKPSQTLSLTCAIFGDSVTSNSAAWNWIRQSPSRGLEWLGRTYYSSKWYNDYAVSVKSRVTINADTSKNQLSLQLNSVTPEDTAVYYCARGWLRLSFDPWGQGTLVTVSS
VL: NFMLTQPHSVSESPGKTVTISCTGSSGSIASNYVQWLQQRLGSAPTTVIYEDNQRPSGVPDRFSGSIDSSSNSASLTISGLKTEDEADYYCQSYDPNNHGVVFGGGTKLTVL
B5: S1-RBD-R3-E1-E8 Ab (Ab 37) (scFv, V domains shown)
VH: QVQLVQSGAEVKKPGASVKVSCKASGYTFTSYGISWVRQAPGQGLEWMGWISTYNGNTNYAQKLQGRVTMTTDTSTSTAYMEVRSLRSDDTAVYYCARDVFGHFDYWGQGTLVTVSS
VL: NFMLTQPHSVSESPGKTVLISCTRSSGNIATNYVQWYQQRPGSAPTTVIYEDNQRPSGVPDRFSGSIDSSSNSASLTISGLKTEDEADYYCKSYDDGNHVFGGGTKLTVL
B6: S1-RBD-R3-T1-G1 Ab (Ab_35) (scFv, V domains shown)
VH: EVQLVQSGAEVKKPGESLRISCKASGYSFTSNWIGWVRQMPGKGLEWMGSIFPGDSDTKYSPSFQGQVTISADRSISTAYLQWSGLKASDTAMYYCARESYNAYGSWGQGTLVTVSS
VL: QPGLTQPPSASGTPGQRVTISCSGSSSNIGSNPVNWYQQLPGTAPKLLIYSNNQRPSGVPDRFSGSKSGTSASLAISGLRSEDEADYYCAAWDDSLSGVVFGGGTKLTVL
B7: Ab 38 (scFv, V domains shown)
VH: QVTLKESGPTLVKPTQTLTLTCTFSGFSLTTSGVSVGWIRQPPGKALEWLALIHWDDDKRYSPSLRSRLTITRDTSKNQVVLTVTDMDPADTGTYYCASFIMTVYAEYFEDWGQGTLVTVSS
VL: EIVLTQSPATLSVSPGERATLSCRASQSVSSNLAWYQQKPGQAPRLLMYDVSTRATGIPARFSGSGSGTEFSLTISSLQSEDFAVYYCQQRGAWPLTFGGGTKVEIK

Molecular target: D614G Spike (SARS-CoV-2, UniProt P0DTC2 16-1213)

Binder | Kd [pM]
B1 | 11.2
B2 | 8.87

Molecular target: D614G Spike (SARS-CoV2, UniProt P0DTC2 16-1213)

Binder | Kd [pM]
B3 | < 1
B4 | 7.42
B5 | 8.54
B6 | 8.69
B7 | 3.37
